Data set [1] has as its target T1, ZIKV NS1 (Zika virus, UniProt A0A024B7W1 795-1146). Briefly: ELONA; protein on Cu2+-coated plate; Hill slope fit; ELONA: borate buffer (60 mM in selection), 37 °C, 30 min, pH not stated; specificity: selection buffer, filtration, qPCR; FET: human serum as gate electrolyte. The note with it: chain copies: 2; label: digoxigenin. In general terms: Quantitative PCR measures a nucleic acid by following its amplification.

The target of data set [2] is T1, ZIKV NS1. Briefly: graphene FET; human serum; Hill n = 0.8 ± 0.2; sequential NS1 addition; ELONA: borate buffer (60 mM in selection), 37 °C, 30 min, pH not stated; specificity: selection buffer, filtration, qPCR; FET: human serum as gate electrolyte. The note with it: chain copies: 2.
A further data set concerns the target YFV NS1 (Yellow fever virus, UniProt P03314 779-1130).
Another data set addresses DENV1 NS1 (Dengue virus serotype 1, UniProt P17763 776-1127). Briefly: filter binding with qPCR; 100 nM aptamer, 40 pmol protein; ELONA: borate buffer (60 mM in selection), 37 °C, 30 min, pH not stated; specificity: selection buffer, filtration, qPCR; FET: human serum as gate electrolyte. The note with it: chain copies: 2.
A further data set addresses DENV3 NS1 (Dengue virus serotype 3, UniProt Q6YMS4 774-1125). The description is as above.

B1: ZIKV60 (digoxigenin-labeled) (ssDNA)
DNA: CTTCTGCCCGCCTCCTTCCGGGCCCCGGGGGGTGTCCAGGCCCATGCGTCGTCCGCGGGGAGACGAGATAGGCGGACACT
For orientation: Kd means the free concentration of one partner at which half of the binding sites on the other are occupied at equilibrium, for simple one-to-one binding. In turn, B1 displayed a Kd in the data set with ZIKV NS1 [1] of 2.28 ± 0.28 nM.

B2: ZIKV60 (pyrene-modified) (ssDNA)
DNA: CTTCTGCCCGCCTCCTTCCGGGCCCCGGGGGGTGTCCAGGCCCATGCGTCGTCCGCGGGGAGACGAGATAGGCGGACACT
modifications: pyrene
B2: the “apparent K (half saturation)” value in the data set with ZIKV NS1 [2] worked out at 1.4 ± 0.3 pg/mL.

B3: ZIKV60 (ssDNA)
DNA: CTTCTGCCCGCCTCCTTCCGGGCCCCGGGGGGTGTCCAGGCCCATGCGTCGTCCGCGGGGAGACGAGATAGGCGGACACT
On to B3, for which the results for the binding signal with YFV NS1, with DENV1 NS1 and in the data set with DENV3 NS1 were 14.2 ratio ZIKV NS1/YFV NS1 bound, 14.2 ratio ZIKV NS1/DENV1 NS1 bound and 13.4 ratio ZIKV NS1/DENV3 NS1 bound, respectively.
